Patent US20060067886A1, “Gastrin receptor-avid peptide conjugates” (priority 1997, published 2006)
Read-outs that look alike come from different tables or passages of the source.

What was measured:
[1] = test system: MDA-MB-231 human tumor xenografts;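 further: SCID mice bearing bilateral flank PC-3 or MDA-MB-231 xenografts, tail-vein dosing, organs sampled from 15 min to 72 h post-injection, radioactivity measured with NaI well counter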
[2] = Biodistribution of radiometal-DOTA-BBN conjugates in CF1 normal mice; conditions: 1 hour post-injection
[3] = test system: PC-3 human tumor xenografts; experiment: in vivo
Description: In vivo pharmacokinetic studies in human tumor bearing SCID mice. […] The xenograft models were produced by bilateral flank inoculation of 5×10^6 cells (PC-3 or MDA-MB-231 cells) per site. Four to six weeks post inoculation, palpable tumors were observed. At this point, the mice were injected with 4 μCi of the complex in […] of isotonic saline via the tail vein. The mice were euthanized and tissues and organs were excised from the animals at selected times post-injection (p.i.), including 15 minutes, 30 minutes, 1 hour, 4 hours, 24 hours, 48 hours, and 72 hours p.i. Subsequently, the tissues and organs were weighed and counted in a NaI well counter and the percent injected dose (% ID) and % ID/g of each organ or tissue calculated.
The mice were injected with 4 μCi of the complex in 100 μL of isotonic saline via the tail vein. The mice were euthanized by cervical dislocation. Tissues and organs were excised from the animals following at 1 hour, 4 hour, and 24 hours post-injection (p.i.). Subsequently, the tissues and organs were weighed and counted in a NaI well counter and the percent injected dose (% ID) and % ID/g of each organ or tissue calculated.

Structure (SMILES): CSCC[C@H](NC(=O)[C@H](CC(C)C)NC(=O)[C@H](Cc1cnc[nH]1)NC(=O)CNC(=O)[C@@H](NC(=O)[C@H](C)NC(=O)[C@H](Cc1c[nH]c2ccccc12)NC(=O)[C@H](CCC(N)=O)NC(=O)CCCCCCCNC(=O)CN1CCN(CC(=O)O)CCN(CC(=O)O)CCN(CC(=O)O)CC1)C(C)C)C(N)=O [111In-DOTA-8-Aoc-BBN[7-14]NH2] [metal not drawn]
- initial tumor uptake retained ([1]; 4 hours): 46%
- initial tumor uptake retained ([1]; 24 hours): 28%
- Avg % ID, Blood [2]: 0.66 ± 0.13 % ID
- Avg % ID, Carcass [2]: 5.01 ± 0.47 % ID
- Avg % ID, Liver [2]: 1.02 ± 0.08 % ID
- Avg % ID, Lung [2]: 0.07 ± 0.02 % ID
- Avg % ID/gm, Heart [2]: 0.05 ± 0.02 % ID/gm
- Avg % ID/gm, Kidney [2]: 2.37 ± 0.31 % ID/gm
- Avg % ID/gm, L. Intestine [2]: 2.66 ± 1.07 % ID/gm
- Avg % ID/gm, Lung [2]: 0.31 ± 0.07 % ID/gm
- Avg % ID/gm, S. Intestine [2]: 4.43 ± 0.90 % ID/gm
- Avg % ID, Blood ([3]; 1 hr): 0.92±0.58 % ID
- Avg % ID, Carcass ([3]; 1 hr): 13.55 ± 6.05 % ID
- Avg % ID, Liver ([3]; 1 hr): 1.41 ± 0.32 % ID
- Avg % ID, Lung ([3]; 1 hr): 0.09 ± 0.07 % ID
- Avg % ID, Pancreas ([3]; 1 hr): 3.49 ± 2.15 % ID
- Avg % ID, Spleen ([3]; 1 hr): 0.09 ± 0.07 % ID
- Avg % ID/gm, Liver ([3]; 1 hr): 1.34 ± 0.25 % ID/gm
- Avg % ID/gm, Lung ([3]; 1 hr): 0.50 ± 0.39 % ID/gm
- Avg % ID/gm, Pancreas ([3]; 1 hr): 18.80 ± 10.97 % ID/gm
- Avg % ID/gm, Spleen ([3]; 1 hr): 1.39 ± 1.17 % ID/gm
- Avg % ID, Carcass ([3]; 4 hrs): 2.92 ± 0.64 % ID
- Avg % ID, L. Intestine ([3]; 4 hrs): 6.04 ± 2.05 % ID
- Avg % ID, Liver ([3]; 4 hrs): 1.57 ± 0.72 % ID
- Avg % ID, Muscle ([3]; 4 hrs): 0.0 ± 0.00 % ID
- Avg % ID, Tumor ([3]; 4 hrs): 0.18 ± 0.17 % ID
- Avg % ID/gm, Blood ([3]; 4 hrs): 0.27 ± 0.02 % ID/gm
- Avg % ID/gm, Liver ([3]; 4 hrs): 1.44 ± 0.57 % ID/gm
- Avg % ID/gm, Spleen ([3]; 4 hrs): 1.59 ± 0.27 % ID/gm
- Avg % ID/gm, Stomach ([3]; 4 hrs): 0.96 ± 0.57 % ID/gm
- excretion through the renal pathway ([3]; 24 hours p.i.): 87 % ID
- Avg % ID, Carcass ([3]; 24 hrs): 1.69 ± 0.56 % ID
- Avg % ID, Heart ([3]; 24 hrs): 0.00 ± 0.01 % ID
- Avg % ID, Pancreas ([3]; 24 hrs): 1.19 ± 0.49 % ID
- Avg % ID, Stomach ([3]; 24 hrs): 0.09 ± 0.02 % ID
- Avg % ID/gm, Blood ([3]; 24 hrs): 0.10 ± 0.03 % ID/gm
- Avg % ID/gm, Kidney ([3]; 24 hrs): 1.18 ± 0.14 % ID/gm
- Avg % ID/gm, Lung ([3]; 24 hrs): 0.09 ± 0.07 % ID/gm
- Avg % ID/gm, Pancreas ([3]; 24 hrs): 6.78 ± 1.15 % ID/gm
- Avg % ID/gm, S. Intestine ([3]; 24 hrs): 0.89 ± 0.16 % ID/gm
- Avg % ID/gm, Spleen ([3]; 24 hrs): 0.46 ± 0.20 % ID/gm
- Avg % ID/gm, Stomach ([3]; 24 hrs): 0.30 ± 0.05 % ID/gm
- Avg % ID, Carcass ([3]; 48 hrs): 0.57 ± 0.02 % ID
- Avg % ID, Muscle ([3]; 48 hrs): 0.00 ± 0.00 % ID
- Avg % ID/gm, Spleen ([3]; 48 hrs): 0.22 ± 0.22 % ID/gm
- Avg % ID, Heart ([3]; 72 hrs): 0.00 ± 0.00 % ID
- Avg % ID, Lung ([3]; 72 hrs): 0.00 ± 0.00 % ID
- Avg % ID, Muscle ([3]; 72 hrs): 0.00 ± 0.00 % ID
- Avg % ID/gm, Blood ([3]; 72 hrs): 0.01 ± 0.02 % ID/gm
- Avg % ID/gm, Heart ([3]; 72 hrs): 0.01 ± 0.01 % ID/gm
- Avg % ID/gm, Kidney ([3]; 72 hrs): 0.20 ± 0.02 % ID/gm
- Avg % ID/gm, Muscle ([3]; 72 hrs): 0.01 ± 0.02 % ID/gm
